Measurements from article PMC5026484 (eLife, 2016).

Target: the molecule itself
Test: crystal structure; X-ray; sitting/hanging-drop vapour diffusion, 20°C; data from beamline X10SA, SLS

B1: Selenomethionine derivative of Mical-3 residues 1841-1990 (domain or fragment, human, UniProt Q7RTP6 1841-1990, looked up)
chain: KQEELKRLHRAQIIQRQLQQVEERQRRLEERGVAVEKALRGEAGMGKKDDPKLMQEWFKLVQEKNAMVRYESELMIFARELELEDRQSRLQQELRERMAVEDHLKTEEELSEEKQILNEMLEVVEQRDSLVALLEEQRLREREEDKDLEA
modifications: selenomethionine in place of methionine
notes: Mical-3, human, whole predicted bMERB domain, residues 1841-1990 (isoform 1); printed elsewhere as 1841-1992; Two copies in the asymmetric unit of the crystal; also called SeMet Mical-3; seleno-L-methionine labelled Mical-3_(1841–1990)
B1: binds.
